In the supplement of paper PMC9732359:
± gives the uncertainty stated by the source.

Experiment: protein stability index of a GFP-peptide fusion (yeast GPS) (PSI 1-4); higher = more stable; sorted into four equal gates, so the index is relative within each strain
Method in brief: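 Sequencing reads from sorted gates were used to score each peptide. The library consisted of tiled 17-residue yeast protein peptides fused downstream of GFP on a Cherry-expressing plasmid, pooled and carried in yeast. Mid-log cultures in leucine-free medium were split into four equal gates by GFP/Cherry ratio, and each gate's plasmids were PCR-amplified and Illumina-sequenced. The protein stability index adds up, over all gates, the read frequency multiplied by the gate number.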

Sequence	protein stability index (doa10∆)	protein stability index (pdr5∆)	protein stability index (san1∆)	protein stability index (ubr1∆)
QLNEKLVGRLRKCETQK [YCS4]	2.03 ± 0.086	1.44 ± 0.062	2.22 ± 0.1	2 ± 0.061
STANPNIKLLNNRMGSY [POP1]	3.01 ± 0.086	3.16 ± 0.083	2.56 ± 0.088	3.04 ± 0.052
LKFAVQVDKVTKEKVNG [RPL26A]	3.23 ± 0.21	3.4 ± 0.16	2.71 ± 0.11	3.01 ± 0.069
TKLIISGQLNFEIDGDV [PCI8]	2.57 ± 0.099	2.16 ± 0.093	1.87 ± 0.11	2.23 ± 0.055
KGGEQISQLYSDAVMAE [YJL041W/NSP1]	2.25 ± 0.12	2.01 ± 0.12	2.19 ± 0.14	2.33 ± 0.13
PYLLETYANVLIPCKYL [RPN7]	1.32 ± 0.067	1.43 ± 0.063	1.19 ± 0.099	1.18 ± 0.062
KCGVISPRFNVKIGDIE [RPS22A]	3.28 ± 0.1	3.35 ± 0.093	2.78 ± 0.11	3.43 ± 0.079
INTLNGGSSDTADKIRI [GAL11]	2.34 ± 0.098	2.02 ± 0.088	1.27 ± 0.094	1.4 ± 0.066
LEDDSLLSYPIKLDRWL [RPN12]	3.12 ± 0.072	2.87 ± 0.057	2.99 ± 0.072	2.78 ± 0.063
LDDPEAVSKDPLLTKRK [DIS3]	2.9 ± 0.11	3.44 ± 0.1	3.34 ± 0.094	3.1 ± 0.059
SAPAPAAAAPAPVAAAA [FAS2]	3.24 ± 0.24	3.21 ± 0.28	2.49 ± 0.13	3.28 ± 0.29
QNHNSKSTDNSAIRQVF [IRR1]	2.61 ± 0.039	2.8 ± 0.037	2.85 ± 0.042	2.739 ± 0.027
GQAIVVHPDYLYGAITE [FAS2]	2.09 ± 0.034	1.88 ± 0.047	1.9 ± 0.048	1.79 ± 0.04
SRNGDFPRTRFEAQIDS [RPN10]	3.09 ± 0.12	3.28 ± 0.12	3.34 ± 0.077	3.23 ± 0.086
LEDLFSYRNGMASYMLN [YJR042W/NUP85]	1.6 ± 0.071	1.25 ± 0.15	1.89 ± 0.13	2.42 ± 0.11
RAHGRINKYESSPSHIE [RPL17A]	2.9 ± 0.07	3.4 ± 0.077	2.99 ± 0.08	3.17 ± 0.061
ELEGSFNKSAELSRIEN [YCS4]	2.58 ± 0.13	3.22 ± 0.23	3.12 ± 0.087	3.11 ± 0.12
VRLQRQKKILSIRLKVP [RPL8B]	1.5 ± 0.032	1.29 ± 0.032	1.27 ± 0.055	1.25 ± 0.025
RALRIETGNFSWASEGI [RPS8A]	3.15 ± 0.036	3.15 ± 0.037	3.11 ± 0.027	3.052 ± 0.026
KTIQINNEKVVQYLRSV [YML031W/NDC1]	3.23 ± 0.17	3.24 ± 0.12		
IPHDLNFLQESYEVEHV [TAF14]	3.16 ± 0.096	3.33 ± 0.087	2.85 ± 0.07	3.12 ± 0.056
SDNIASLQYINIRGNTI [SMD1]	3.08 ± 0.059	3.22 ± 0.056	2.86 ± 0.063	3.01 ± 0.048
PNVFDKDSYVRIANIEQ [YDL088C/ASM4]	3 ± 0.093	3.09 ± 0.047	3.04 ± 0.07	3.22 ± 0.051
HHRIFDSSAHFKGALTI [YMR129W/POM152]	2.56 ± 0.073	2.73 ± 0.084	2.44 ± 0.14	2.62 ± 0.053
VEKNEIGKMYDEYLGSH [NNF1]	3.38 ± 0.17	3.3 ± 0.15	3.28 ± 0.12	3.18 ± 0.086
LLDVKLAIDNMYILGMC [YCG1]	1.56 ± 0.086	1.51 ± 0.051	1.86 ± 0.071	2.12 ± 0.05
